Substitutions are numbered along the chain they refer to. Read-outs that look alike come from different tables or passages of the source.
Tests used:
[1] = molecular target: T1, RL9 SIV (peptide pulsed K562-HLA-E cells) (human); assay: flow cytometry on peptide-pulsed K562-HLA-E cells; AF647 anti-mouse Ig(H+L)
T1 construct: cell surface

[2] = molecular target: T2, Mtb44 (peptide pulsed K562-HLA-E cells) (human); assay: as above
T2 construct: cell surface

[3] = molecular target: T3, RL9HIV (peptide pulsed K562-HLA-E cells) (human); assay: as above
T3 construct: cell surface

[4] = molecular target: T4, soluble HLA-E-VL9 complex (HLA-E*01:03, β2M, VL9 peptide) (human)
[5] = molecular target: HLA-E-RL9HIV with a mutation at P1 (arginine to valine) on transfected 293T cells (human, UniProt P61769 21-119; P13747 22-358); assay: flow cytometry on transfected HEK 293T cells
[6] = molecular target: T4, soluble HLA-E-VL9 complex (HLA-E*01:03, …); remark: listed apart in the source
[7] = molecular target: T4, soluble HLA-E-VL9 complex (HLA-E*01:03, …); remark: listed apart in the source
[8] = molecular target: T4, soluble HLA-E-VL9 complex (HLA-E*01:03, …); remark: listed apart in the source
[9] = molecular target: HLA-E-RL9SIV single chain trimer on transfected 293T cells (human, UniProt P61769 21-119; P13747 22-358); assay: flow cytometry, SCT-transfected 293T cells, MFI bar chart [panel E]

B1: 3H4 IgM (murine HLA-E-VL9-specific IgM monoclonal antibody 3H4) (antibody, V domains shown)
VH: EVQLQESGPELVKPGASVKIPCKASGYTFTDYNMDWVKQSHGKSLEWIGDINPNNGGTIYNQKFKGKATLTVDKSSSTAYMELRSLTSEDTAVYYCARPDYYGSSYGWYFDVWGTGTTVTVSS
VL: DIVITQSPSSMYASLGERVTITCKASQDINSYLSWFQQKPGKSPKTLIYRANRLVDGVPSRFSGSGSGQDYSLTISSLEYEDMGIYYCLQYDEFPLTFGAGTKLELK
notes: also called mAb 3H4; IgM 3H4
MFI [1]: 1580 | MFI [2]: 1180 | MFI [3]: 1520

B2: 3H4 Gv3 (antibody, V domains shown)
VH: B1 VH with Y101S, Y102A, G103Q, S104Y
VL: B1 VL
Kd [4]: 223 nM

B3: 3H4G_v31 (antibody, V domains shown)
VH: B1 VH with Y101S, Y102A, G103Q, S104Y, S105R, Y106W, G107N
VL: B1 VL
notes: also called 3H4_Gv31_G1.4A
binding result [5]: binds | Kd [6]: 62.4 nM | koff [6]: 0.0112 s⁻¹ | kon [6]: 180000 M⁻¹ s⁻¹

B4: 3H4 Gv7 (antibody, V domains shown)
VH: B1 VH with Y101G, Y102A, G103R, S104W
VL: B1 VL
Kd [7]: 735 nM | koff [7]: 0.0345 s⁻¹ | kon [7]: 47000 M⁻¹ s⁻¹ | Kd [8]: 994 nM | koff [8]: 0.0349 s⁻¹ | kon [8]: 35200 M⁻¹ s⁻¹

B5: CA172 (antibody, V domains shown)
VH: QVQLVESGGGLVKPGGSLRLSCAASGFTFSDYYMSWIRQAPGKGLEWVSYISSSSSYTNYADSVKGRFTISRDNAKNSLYLQMNSLRAEDTAVYYCARALRYFDWYDYWGQGTLVTVSS
VL: EIVLTQSPDFQSVTPKGKVTITCRASQSIGSSLHWYQQKPDQSPKLLIKYASQSFSGVPSRFSGSGSGTEFTLTISSLQPEDFATYYCQQLNSYSPITFGQGTRLEIK
binding result [9]: no binding (tested: 2 µg/ml)

From patent publication US20250019443A1 (DUKE UNIVERSITY, published 2025)
